Paper PMC9142594

Tests used:
Test in all cases: SPR; Biacore T200; His-tagged histones immobilised on sensor chip NTA; AGEs at 6.25, 12.5, 25, 50 and 100 µg/ml, single-cycle kinetics; 10 mM HEPES, 150 mM NaCl, 0.05% Tween-20; 25 °C; 30 µl/min
[1] = target: His-tagged human histone H2B (human) (UniProt P06899)
[2] = target: His-tagged human histone H3 (human) (UniProt P68431)
[3] = target: His-tagged human histone H2A (human) (UniProt P04908)

Kd [1]: 67.2 nM
Kd [2]: 96.5 nM
Kd [3]: 85.5 nM
Substance: advanced glycation end products (AGEs): bovine serum albumin modified with dehydroascorbic acid (DHA) (from UniProt P02769 25-607) (ligand)
